{"source": "patent US20160340442A1", "key": {"[1]": {"target": "MUC1 (human) (UniProt P15941)", "sequence (P15941 24-1255)": "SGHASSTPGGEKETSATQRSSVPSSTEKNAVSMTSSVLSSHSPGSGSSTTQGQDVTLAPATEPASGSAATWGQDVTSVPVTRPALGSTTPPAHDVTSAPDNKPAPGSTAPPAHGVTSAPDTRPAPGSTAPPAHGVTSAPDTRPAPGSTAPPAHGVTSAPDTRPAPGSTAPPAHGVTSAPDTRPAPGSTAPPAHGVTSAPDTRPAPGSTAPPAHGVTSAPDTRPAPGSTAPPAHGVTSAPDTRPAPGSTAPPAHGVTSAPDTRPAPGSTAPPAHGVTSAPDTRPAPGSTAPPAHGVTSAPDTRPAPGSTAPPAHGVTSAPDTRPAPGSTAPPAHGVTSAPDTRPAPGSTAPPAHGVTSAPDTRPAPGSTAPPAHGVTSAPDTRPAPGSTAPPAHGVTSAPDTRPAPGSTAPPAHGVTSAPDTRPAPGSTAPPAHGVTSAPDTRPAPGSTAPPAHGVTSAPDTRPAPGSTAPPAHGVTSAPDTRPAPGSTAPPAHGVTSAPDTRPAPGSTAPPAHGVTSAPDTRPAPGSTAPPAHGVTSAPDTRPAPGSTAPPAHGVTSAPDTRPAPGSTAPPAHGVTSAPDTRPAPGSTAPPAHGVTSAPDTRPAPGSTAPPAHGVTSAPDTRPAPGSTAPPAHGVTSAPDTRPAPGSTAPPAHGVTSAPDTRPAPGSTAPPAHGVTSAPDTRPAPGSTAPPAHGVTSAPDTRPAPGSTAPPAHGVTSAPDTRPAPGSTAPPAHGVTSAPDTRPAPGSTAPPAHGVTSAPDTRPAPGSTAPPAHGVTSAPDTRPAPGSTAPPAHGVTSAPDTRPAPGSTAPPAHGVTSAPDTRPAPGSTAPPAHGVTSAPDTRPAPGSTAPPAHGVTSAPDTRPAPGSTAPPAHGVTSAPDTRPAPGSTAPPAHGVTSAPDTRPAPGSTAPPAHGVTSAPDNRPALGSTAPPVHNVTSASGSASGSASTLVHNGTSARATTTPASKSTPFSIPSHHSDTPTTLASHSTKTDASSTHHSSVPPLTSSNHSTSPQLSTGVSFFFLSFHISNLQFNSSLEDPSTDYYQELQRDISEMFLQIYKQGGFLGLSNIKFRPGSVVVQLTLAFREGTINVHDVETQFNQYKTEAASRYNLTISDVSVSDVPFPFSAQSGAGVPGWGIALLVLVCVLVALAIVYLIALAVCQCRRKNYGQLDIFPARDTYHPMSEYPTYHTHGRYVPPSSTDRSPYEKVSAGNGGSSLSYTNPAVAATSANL", "experiment": "surface staining, flow cytometry, U266 MUC1-siRNA cells (MUC1 silenced, second block); 2 µg antibody/sample"}, "[2]": {"target": "MUC1 (human) (UniProt P15941)", "experiment": "surface staining, flow cytometry, K562 CML cells; 2 µg antibody/sample"}, "[3]": {"target": "MUC1 (human) (UniProt P15941)", "experiment": "surface staining, flow cytometry, KU812 CTL-siRNA cells (second block); 2 µg antibody/sample"}, "[4]": {"target": "MUC1 (human) (UniProt P15941)", "experiment": "surface staining, flow cytometry, ZR-75-1 cells (second row); 2 µg antibody/sample"}, "[5]": {"target": "MUC1 (human) (UniProt P15941)", "experiment": "surface staining, flow cytometry, KU812 MUC1-siRNA cells (MUC1 silenced); 2 µg antibody/sample"}, "[6]": {"target": "MUC1 (human) (UniProt P15941)", "experiment": "surface staining, flow cytometry, U266 CTL-siRNA cells (second block); 2 µg antibody/sample"}, "[7]": {"target": "MUC1 (human) (UniProt P15941)", "experiment": "surface staining, flow cytometry, KU812 CTL-siRNA cells; 2 µg antibody/sample"}, "[8]": {"target": "MUC1 (human) (UniProt P15941)", "experiment": "surface staining, flow cytometry, KMS28PE cells; 2 µg antibody/sample"}, "[9]": {"target": "MUC1 (human) (UniProt P15941)", "experiment": "flow cytometry, K562/Con siRNA cells (MUC1-positive)"}, "[10]": {"target": "MUC1 (human) (UniProt P15941)", "experiment": "surface staining, flow cytometry, K562 cells; 2 µg antibody/sample"}, "[11]": {"target": "MUC1 (human) (UniProt P15941)", "experiment": "surface staining, flow cytometry, primary breast cancer patient cells RG563999 (second row); 2 µg antibody/sample"}, "[12]": {"target": "MUC1 (human) (UniProt P15941)", "experiment": "flow cytometry, U266/MUC1siRNA cells (MUC1 silenced, labelled MUC1-negative)"}, "[13]": {"target": "MUC1 (human) (UniProt P15941)", "experiment": "flow cytometry, KU812/Con siRNA cells (MUC1-Positive)"}, "[14]": {"target": "MUC1 (human) (UniProt P15941)", "experiment": "surface staining, flow cytometry, MOLM-14 cells; 2 µg antibody/sample, PE-conjugated goat anti-mouse 2nd antibody"}, "[15]": {"target": "MUC1 (human) (UniProt P15941)", "experiment": "surface staining, flow cytometry, ME559203 cells; 2 µg antibody/sample"}, "[16]": {"target": "MUC1 (human) (UniProt P15941)", "experiment": "surface staining, flow cytometry, ZR-75-1 cells (third row); 2 µg antibody/sample"}, "[17]": {"target": "MUC1 (human) (UniProt P15941)", "experiment": "surface staining, flow cytometry, MV4-11 cells; 2 µg antibody/sample"}, "[18]": {"target": "MUC1 (human) (UniProt P15941)", "experiment": "surface staining, flow cytometry, primary breast cancer patient cells RG563999; 2 µg antibody/sample"}, "[19]": {"target": "MUC1 (human) (UniProt P15941)", "experiment": "flow cytometry, U266/Con siRNA cells (MUC1-positive)"}, "[20]": {"target": "MUC1 (human) (UniProt P15941)", "experiment": "surface staining, flow cytometry, U266 cells; 2 µg antibody/sample"}, "[21]": {"target": "MUC1 (human) (UniProt P15941)", "experiment": "surface staining, flow cytometry, KU812 CML cells; 2 µg antibody/sample"}, "[22]": {"target": "MUC1 (human) (UniProt P15941)", "experiment": "surface staining, flow cytometry, ZR-75-1 cells; 2 µg antibody/sample"}, "[23]": {"target": "MUC1 (human) (UniProt P15941)", "experiment": "surface staining, flow cytometry, K562 MUC1-siRNA cells (MUC1 silenced); 2 µg antibody/sample"}, "[24]": {"target": "MUC1 (human) (UniProt P15941)", "experiment": "surface staining, flow cytometry, KU812 MUC1-siRNA cells (MUC1 silenced, second block); 2 µg antibody/sample"}, "[25]": {"target": "MUC1 (human) (UniProt P15941)", "experiment": "flow cytometry, K562/MUC1siRNA cells (MUC1 silenced, labelled MUC1-negative)"}, "[26]": {"target": "MUC1 (human) (UniProt P15941)", "experiment": "flow cytometry, KU812/MUC1siRNA cells (MUC1 silenced, labelled MUC1-negative)"}, "[27]": {"target": "MUC1 (human) (UniProt P15941)", "experiment": "surface staining, flow cytometry, primary breast cancer patient cells JB564765; 2 µg antibody/sample"}, "[28]": {"target": "MUC1 (human) (UniProt P15941)", "experiment": "surface staining, flow cytometry, RPMI8266 cells; 2 µg antibody/sample"}, "[29]": {"target": "MUC1 (human) (UniProt P15941)", "experiment": "surface staining, flow cytometry, KU812 cells; 2 µg antibody/sample"}, "[30]": {"target": "MUC1 (human) (UniProt P15941)", "experiment": "surface staining, flow cytometry, U266 MUC1-siRNA cells (MUC1 silenced); 2 µg antibody/sample"}, "[31]": {"target": "MUC1 (human) (UniProt P15941)", "experiment": "surface staining, flow cytometry, U266 CTL-siRNA cells; 2 µg antibody/sample"}, "[32]": {"target": "MUC1 (human) (UniProt P15941)", "experiment": "surface staining, flow cytometry, K562 CTL-siRNA cells; 2 µg antibody/sample; fixed samples kept at 4° C. for 4 days"}}, "data": [{"substance": "DF3 (antibody)", "values": [{"measurement": "flow cytometry value (unit not given)", "setting": "[1]", "result": 13.5}, {"measurement": "flow cytometry value (unit not given)", "setting": "[2]", "result": 77.9}, {"measurement": "flow cytometry value (unit not given)", "setting": "[3]", "result": 95.2}, {"measurement": "flow cytometry value (unit not given)", "setting": "[4]", "result": 6.84}, {"measurement": "flow cytometry value (unit not given)", "setting": "[5]", "result": 69.2}, {"measurement": "flow cytometry value (unit not given)", "setting": "[6]", "result": 96.5}, {"measurement": "flow cytometry value (unit not given)", "setting": "[7]", "result": 96.6}, {"measurement": "flow cytometry value (unit not given)", "setting": "[8]", "result": 58.2}, {"measurement": "flow cytometry value (unit not given)", "setting": "[9]", "result": 40.6}, {"measurement": "flow cytometry value (unit not given)", "setting": "[10]", "result": 78.8}, {"measurement": "flow cytometry value (unit not given)", "setting": "[11]", "result": 11.9}, {"measurement": "flow cytometry value (unit not given)", "setting": "[12]", "result": 13.5}, {"measurement": "flow cytometry value (unit not given)", "setting": "[13]", "result": 95.2}, {"measurement": "flow cytometry value (unit not given)", "setting": "[14]", "result": 99.5}, {"measurement": "flow cytometry value (unit not given)", "setting": "[15]", "result": 57}, {"measurement": "flow cytometry value (unit not given)", "setting": "[16]", "result": 89.5}, {"measurement": "flow cytometry value (unit not given)", "setting": "[17]", "result": 74.2}, {"measurement": "flow cytometry value (unit not given)", "setting": "[18]", "result": 60.5}, {"measurement": "flow cytometry value (unit not given)", "setting": "[19]", "result": 94.7}, {"measurement": "flow cytometry value (unit not given)", "setting": "[20]", "result": 99.2}, {"measurement": "flow cytometry value (unit not given)", "setting": "[21]", "result": 90.5}, {"measurement": "flow cytometry value (unit not given)", "setting": "[22]", "result": 98.5}, {"measurement": "flow cytometry value (unit not given)", "setting": "[23]", "result": 17.1}, {"measurement": "flow cytometry value (unit not given)", "setting": "[24]", "result": 85.4}, {"measurement": "flow cytometry value (unit not given)", "setting": "[25]", "result": 17.1}, {"measurement": "flow cytometry value (unit not given)", "setting": "[26]", "result": 35.4}, {"measurement": "flow cytometry value (unit not given)", "setting": "[27]", "result": 21.1}, {"measurement": "flow cytometry value (unit not given)", "setting": "[28]", "result": 95}, {"measurement": "flow cytometry value (unit not given)", "setting": "[29]", "result": 98.1}, {"measurement": "flow cytometry value (unit not given)", "setting": "[30]", "result": 16.2}, {"measurement": "flow cytometry value (unit not given)", "setting": "[31]", "result": 94.7}, {"measurement": "flow cytometry value (unit not given)", "setting": "[32]", "result": 40.6}]}]}
